{"source": "paper PMC4106346", "about": "“The Oligomeric States of the Purified Sigma-1 Receptor Are Stabilized by Ligands” (The Journal of Biological Chemistry, 2014)", "target": "GpA G83I", "assay": "TOXCAT", "details": "parent: est. 100; read off a plot", "data": [{"substance": "glycophorin A transmembrane control of the TOXCAT assay G83I", "values": [{"measurement": "response", "result": 6.3, "unit": "%GpA"}]}]}
